For test [1], the target named is 108060-I169K V1/V2 scaffold, gD-tagged, produced in GnTI- 293 HEK cells (herpes simplex virus 1; HIV-1 isolate 108060). The test can be described thus: ELISA; table row 108060 V1/V2 I169K, GnTI-. (In general: ELISA stands for enzyme-linked immunosorbent assay.)
Test [2] addresses 108060 I169K/E172V V1/V2 scaffold, gD-tagged, produced in GnTI- 293 HEK cells (herpes simplex virus 1; HIV-1 isolate 108060). The test can be described thus: ELISA; table row 108060 V1/V2 I169K/E172V, GnTI-.
The next test has as its target A244 V1/V2.eng1 (GnTI-). Description: ELISA; table row A244 V1/V2.eng1*, GnTI-.
Test [3] has as its target ZM109 V1/V2 scaffold, wildtype, gD-tagged, produced in GnTI- 293 cells (herpes simplex virus 1; HIV-1 isolate ZM109). Description: ELISA; table row ZM109 V1/V2 wt, GnTI-.
For test [4], the target named is A244 V1/V2 scaffold, engineered, gD-tagged, produced in normal 293 HEK cells (herpes simplex virus 1; HIV-1 isolate A244) (UniProt Q69091). The test can be described thus: ELISA; table row A244 V1/V2.eng1*, column 293.
Another test deals with CAP.45 V1/V2 wt (GnTI-). Description: ELISA; table row CAP.45 V1/V2 wt, GnTI-.
Test [5] concerns the target A244 V1/V2 scaffold, wildtype, gD-tagged, produced in GnTI- 293 HEK cells (herpes simplex virus 1; HIV-1 isolate A244) (UniProt Q69091). The test can be described thus: ELISA; table row A244 V1/V2 wt, GnTI-.
Test [6] concerns the target 108060 I169K/E172V/T161M/N156I/S164G/D167G V1/V2 scaffold, gD-tagged, produced in GnTI- 293 HEK cells (herpes simplex virus 1; HIV-1 isolate 108060). The test can be described thus: ELISA; table row 108060 V1/V2.eng1*, GnTI-.
For test [7], the target named is ZM233 V1/V2 scaffold, wildtype, gD-tagged, produced in GnTI- 293 HEK cells (herpes simplex virus 1; HIV-1 isolate ZM233). The test can be described thus: ELISA; table row ZM233 V1/V2 wt, GnTI-.
The target in test [8] is A244 V1/V2 scaffold, wildtype, gD-tagged, produced in GnTI- 293 HEK cells (herpes simplex virus 1; HIV-1 isolate A244) (UniProt Q69091). The test can be described thus: capture ELISA on 34.1 anti-gD; scaffold in medium of GnTI- cells.
Test [9] concerns the target ZM233 V1/V2 scaffold, wildtype, gD-tagged, produced in GnTI- 293 HEK cells (herpes simplex virus 1; HIV-1 isolate ZM233). Described as above.
In test [10] the target is A244 V1/V2 scaffold, wildtype (unmutated), Strep-tag/6x Histidine-tag, expressed in GnTI- cells (HIV-1 isolate A244). The test can be described thus: SPR (Biacore 3000), PG9 captured by anti-human Fc at about 100 RU, scaffold flowed, 1:1 Langmuir fit.
For test [11], the target named is ZM233 V1/V2 scaffold, engineered, gD-tagged, produced in normal 293 HEK cells (herpes simplex virus 1; HIV-1 isolate ZM233). Description: capture ELISA on 34.1 anti-gD; scaffold made in 293F cells.
The target of test [12] is 108060-I169K V1/V2 scaffold, gD-tagged, produced in normal 293 HEK cells (herpes simplex virus 1; HIV-1 isolate 108060). The test can be described thus: ELISA; table row 108060 V1/V2 I169K, column 293.
For test [13], the target named is A244 V1/V2 scaffold, wildtype, gD-tagged, produced in normal 293 HEK cells (herpes simplex virus 1; HIV-1 isolate A244) (UniProt Q69091). The test can be described thus: capture ELISA on 34.1 anti-gD; scaffold made in 293 cells.
For test [14], the target named is A244 V1/V2 scaffold, wildtype (unmutated), Strep-tag/6x Histidine-tag, expressed in GnTI- cells (HIV-1 isolate A244). The test can be described thus: SPR (Biacore 3000), PG9 captured on anti-human Fc, scaffold flowed, 1:1 Langmuir fit. For orientation: Surface plasmon resonance follows binding to a sensor surface in real time, without labels.
Test [15] has as its target A244 V1/V2 scaffold, engineered, Strep-tag/6x Histidine-tag, produced in normal 293 cells (HIV-1 isolate A244). The description is as above.
Test [16] addresses ZM233 V1/V2 scaffold, engineered, Strep-tag/6x Histidine-tag, expressed in normal 293 cells (HIV-1 isolate ZM233). Described as above.
The target of test [17] is ZM233 V1/V2 scaffold, engineered, gD-tagged, produced in GnTI- 293 HEK cells (herpes simplex virus 1; HIV-1 isolate ZM233). Description: capture ELISA on 34.1 anti-gD; scaffold made in GnTI- cells.
In test [18] the target is 108060 I169K/E172V/T161M/N156I/S164G/D167G V1/V2 scaffold, gD-tagged, produced in GnTI- 293 HEK cells (herpes simplex virus 1; HIV-1 isolate 108060). Description: capture ELISA on 34.1 anti-gD; purified scaffold made in GnTI- cells.
Test [19] deals with MN V1/V2 scaffold, engineered, gD-tagged, produced in GnTI- 293 HEK cells (herpes simplex virus 1; HIV-1 isolate MN). The description is as above.
Test [20] addresses JRFL-E168K V1/V2 scaffold, engineered, gD-tagged, produced in GnTI- 293 HEK cells (herpes simplex virus 1; HIV-1 isolate JRFL). The description is as above.
For test [21], the target named is 108060 I169K/E172V/T161M/N156I/S164P/L165G V1/V2 scaffold, gD-tagged, produced in GnTI- 293 HEK cells (herpes simplex virus 1; HIV-1 isolate 108060). Described as above.

Regarding PG9 monoclonal antibody, the EC50 in [1] stood at 679 ng/mL; in [2] it was 113 ng/mL; in the test with A244 V1/V2.eng1 (GnTI-), 4.06 ng/mL; in [3], 14.3 ng/mL; in [4], 99 ng/mL; with CAP.45 V1/V2 wt (GnTI-) it was 52.7 ng/mL. Moreover, the 50% effective concentration (EC50) in [5] turned out to be 0.741 ng/mL; in test [6], 6.85 ng/mL; in test [7], 9.51 ng/mL; in test [8] it was 0.74 ng/mL; in test [9] it was 9.5 ng/mL; in test [11], 2 ng/mL. The EC50 in test [12] was above 10000 ng/mL; in [13] it was 894 ng/mL; in [17], 10 ng/mL; in test [18], 6.8 ng/mL; in [19], 7.9 ng/mL; in test [20] it was 13 ng/mL. The EC50 in test [21] is 8.34 ng/mL. The Kd in test [10] is 15 nM. For the same substance, the figures for the kon in [14], in [15] and in [16] were 53000 M⁻¹ s⁻¹, 40000 M⁻¹ s⁻¹ and 40000 M⁻¹ s⁻¹, respectively. In addition, the off-rate constant (koff) in test [16] amounted to 0.0023 s⁻¹.

As a reminder, the EC50 is the concentration that produces a half-maximal response. A higher EC50 goes with weaker potency. As usually defined, the Kd is the concentration at which binding is half-saturated. Read a low Kd as higher affinity. As a reminder, the kon is a measure of how fast the partners come together. A low value points to slower complex formation. By koff is commonly meant the first-order rate constant of dissociation. A higher koff goes with fast dissociation.

Values taken from patent US20190091326A1.
